Source: patent US20030143191A1, “Chemokine beta-1 fusion proteins” (priority 2001, published 2003)

Columns and labels:
[1] = tested on: Jaks-STATS signal transduction pathway; test: GAS-SEAP/U937 reporter assay for myeloid activity; type: cell-based; conditions: GAS-SEAP/U937 cells; 100 Unit/ml; positive control wells; 48 to 72 hr
Description: The following protocol is used to assess myeloid activity of a fusion protein (e.g. albumin fusion protein) of the present invention by determining whether the fusion protein proliferates and/or differentiates myeloid cells. Myeloid cell activity is assessed using the GAS/SEAP/Neo construct produced in Example 29. Thus, factors that increase SEAP activity indicate the ability to activate the Jaks-STATS signal transduction pathway. The myeloid cell used in this assay is U937, a pre-monocyte cell line, although TF-1, HL60, or KG1 can be used.
To transiently transfect U937 cells with the GAS/SEAP/Neo construct produced in Example 29, a DEAE-Dextran method (Kharbanda et. al., 1994, Cell Growth & Differentiation, 5:259-265) is used. First, harvest 2×10^7 U937 cells and wash with PBS. The U937 cells are usually grown in RPMI 1640 medium containing 10% heat-inactivated fetal bovine serum (FBS) supplemented with 100 units/ml penicillin and […] streptomycin.
Next, suspend the cells in 1 ml of 20 mM Tris-HCl (pH 7.4) buffer containing 0.5 mg/ml DEAE-Dextran, 8 ug GAS-SEAP2 plasmid DNA, 140 mM NaCl, 5 mM KCl, 375 uM Na2HPO4.7H2O, 1 mM MgCl2, and 675 uM CaCl2. Incubate at 37 degrees C. for 45 min.
Wash the cells with RPMI 1640 medium containing 10% FBS and then resuspend in 10 ml complete medium and incubate at 37 degree C. for 36 hr. […]

[2] = tested on: Jaks-STATS signal transduction pathway; test: Jurkat:GAS-SEAP reporter assay for T-cell activity; type: cell-based; conditions: Jurkat:GAS-SEAP cells; 100 Unit/ml; positive control wells; 48 hrs
Description: The following protocol is used to assess T-cell activity by identifying factors, and determining whether a fusion protein (e.g. albumin fusion protein) of the invention proliferates and/or differentiates T-cells. T-cell activity is assessed using the GAS/SEAP/Neo construct produced in Example 29. Thus, factors that increase SEAP activity indicate the ability to activate the Jaks-STATS signal transduction pathway. The T-cell used in this assay is Jurkat T-cells (ATCC Accession No. TIB-152), although Molt-3 cells (ATCC Accession No. CRL-1552) and Molt-4 cells (ATCC Accession No. CRL-1582) cells can also be used.
Jurkat T-cells are lymphoblastic CD4^+ Th1 helper cells. In order to generate stable cell lines, approximately 2 million Jurkat cells are transfected with the GAS-SEAP/neo vector using DMRIE-C (Life Technologies)(transfection procedure described below). The transfected cells are seeded to a density of approximately 20,000 cells per well and transfectants resistant to 1 mg/ml genticin selected. Resistant colonies are expanded and then tested for their response to increasing concentrations of interferon gamma.
Specifically, the following protocol will yield sufficient cells for 75 wells containing 200 ul of cells. Thus, it is either scaled up, or performed in multiple to generate sufficient cells for multiple 96 well plates. […]

monocytes = conditions: cited from earlier work
CCR1 = target: T1, CCR1 (Homo sapiens, UniProt P32246); conditions: Detheux et al., J. Exp. Med. 192:1501-1508 (2000); cited from earlier work
T1 sequence (P32246 1-355): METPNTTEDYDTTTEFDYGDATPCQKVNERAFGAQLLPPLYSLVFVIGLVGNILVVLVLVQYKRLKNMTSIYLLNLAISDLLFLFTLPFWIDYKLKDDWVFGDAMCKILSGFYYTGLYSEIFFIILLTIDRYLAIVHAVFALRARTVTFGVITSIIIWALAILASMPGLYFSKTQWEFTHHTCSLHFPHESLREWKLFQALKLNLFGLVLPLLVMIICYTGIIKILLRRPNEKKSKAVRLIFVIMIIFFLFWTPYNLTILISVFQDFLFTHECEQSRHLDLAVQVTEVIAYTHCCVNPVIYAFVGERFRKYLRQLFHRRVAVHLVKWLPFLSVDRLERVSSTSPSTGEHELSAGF

CCR3 = target: T2, CCR3 (Homo sapiens, UniProt P51677); conditions: Detheux et al., J. Exp. Med. 192:1501-1508 (2000); cited from earlier work
T2 sequence (P51677 1-355): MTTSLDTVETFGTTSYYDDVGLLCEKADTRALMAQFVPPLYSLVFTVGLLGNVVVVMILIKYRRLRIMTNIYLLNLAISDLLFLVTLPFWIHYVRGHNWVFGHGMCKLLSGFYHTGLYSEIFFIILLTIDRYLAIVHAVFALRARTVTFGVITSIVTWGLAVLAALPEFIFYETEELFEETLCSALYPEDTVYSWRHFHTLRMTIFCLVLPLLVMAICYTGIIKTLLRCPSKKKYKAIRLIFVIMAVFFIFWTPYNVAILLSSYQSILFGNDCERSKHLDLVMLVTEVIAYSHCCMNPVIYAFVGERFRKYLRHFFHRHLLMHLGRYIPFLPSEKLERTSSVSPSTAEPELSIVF

CCR5 = CCR5 (Homo sapiens, UniProt P51681); conditions: Detheux et al., J. Exp. Med. 192:1501-1508 (2000); cited from earlier work
Sequence of CCR5 (P51681 whole entry, species assumed): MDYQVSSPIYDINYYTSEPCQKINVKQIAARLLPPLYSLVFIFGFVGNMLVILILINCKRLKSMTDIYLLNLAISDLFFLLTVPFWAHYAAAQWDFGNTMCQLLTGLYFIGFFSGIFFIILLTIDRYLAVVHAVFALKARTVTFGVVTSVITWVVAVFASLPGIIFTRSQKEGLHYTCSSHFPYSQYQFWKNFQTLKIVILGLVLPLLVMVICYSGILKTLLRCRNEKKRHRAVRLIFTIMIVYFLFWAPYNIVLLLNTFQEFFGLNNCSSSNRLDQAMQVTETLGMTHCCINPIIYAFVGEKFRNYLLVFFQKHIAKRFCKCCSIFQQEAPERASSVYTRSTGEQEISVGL

human monocytes = test: Cytokine release from human monocytes (ELISA of culture supernatants); type: cell-based; conditions: human monocytes (1×10^6), 1 day incubation
Description: To evaluate the in vitro activity of Ckb1(G-28-N93) and Ckb1(G-28-N93) fused to human serum albumin, proteins produced by these constructs were incubated with human monocytes (1×10^6) for 1 day. Culture supernatants were collected and analyzed by ELISA for cytokine content.

B1: IFN-g: IFN family ligand; positive control known to activate Jurkat T cells and U937 cells (protein, UniProt P01579 24-161, looked up)
Interferon gamma: QDPYVKEAENLKKYFNAGHSDVADNGTLFLGILKNWKEESDRKIMQSQIVSFYFKLFKNFKDDQSIQKSVETIKEDMNVKFFNSNKKKRDDFEKLTNYSVTDLNVQRKAIHELIQVMAELSPAAKTGKRKRSQMLFRG
[1]
  induction (SEAP reporter activity): Over 30 fold
[2]
  induction (SEAP reporter activity): Over 30 fold

B2: Ckb1: human chemokine beta 1; mature form of 74 amino acids, amino acids 1-74 of SEQ ID NO:2 (protein, listed as Homo Sapiens)
chain: MKISVAAIPFFLLITIALGTKTESSSRGPYHPSECCFTYTTYKIPRQRIMDYYETNSQCSKPGIVFITKRGHSV
monocytes
  activation of monocytes: weak activator
CCR1
  agonism / activation of CCR1: activates CCR1 at high (supraphysiological) concentrations

B3: Ckb1 [9-74]: N-terminal deletion variant of Ckb1 consisting of amino acids 9-74 of SEQ ID NO:2 (Detheux et al.) (protein, listed as Homo Sapiens)
chain: PFFLLITIALGTKTESSSRGPYHPSECCFTYTTYKIPRQRIMDYYETNSQCSKPGIVFITKRGHSV
CCR1
  agonism / activation of CCR1: potent agonist
CCR3
  agonism of CCR3: potent agonist
CCR5
  agonism of CCR5: potent agonist

B4: Ckb1(G28-N93): Ckb1 polypeptide, residues G28-N93, not fused (protein)
chain: GPYHPSECCFTYTTYKIPRQRIMDYYETNSQCSKPGIVFITKRGHSVCTNPSDKWVQDYIKDMKEN
Human monocytes
  release of IL-1β: induced release
  release of IL-6: induced release
  release of TNF-alpha: induced release
